Source: PMC8586334

Legend:
[1] = target: S. cerevisiae RPA-SSL heterotrimer (Rfa1-F11S, I14S, F15L; Rfa2; Rfa3) (S. cerevisiae) (UniProt P22336)
[2] = target: S. cerevisiae replication protein A (RPA), wild type heterotrimer (Rfa1, Rfa2, Rfa3) (S. cerevisiae) (UniProt P22336)
Sequence of S. cerevisiae replication protein A (RPA), wild type heterotrimer (Rfa1, Rfa2, Rfa3) (S. cerevisiae) (P22336 whole entry, chain 1 of 3): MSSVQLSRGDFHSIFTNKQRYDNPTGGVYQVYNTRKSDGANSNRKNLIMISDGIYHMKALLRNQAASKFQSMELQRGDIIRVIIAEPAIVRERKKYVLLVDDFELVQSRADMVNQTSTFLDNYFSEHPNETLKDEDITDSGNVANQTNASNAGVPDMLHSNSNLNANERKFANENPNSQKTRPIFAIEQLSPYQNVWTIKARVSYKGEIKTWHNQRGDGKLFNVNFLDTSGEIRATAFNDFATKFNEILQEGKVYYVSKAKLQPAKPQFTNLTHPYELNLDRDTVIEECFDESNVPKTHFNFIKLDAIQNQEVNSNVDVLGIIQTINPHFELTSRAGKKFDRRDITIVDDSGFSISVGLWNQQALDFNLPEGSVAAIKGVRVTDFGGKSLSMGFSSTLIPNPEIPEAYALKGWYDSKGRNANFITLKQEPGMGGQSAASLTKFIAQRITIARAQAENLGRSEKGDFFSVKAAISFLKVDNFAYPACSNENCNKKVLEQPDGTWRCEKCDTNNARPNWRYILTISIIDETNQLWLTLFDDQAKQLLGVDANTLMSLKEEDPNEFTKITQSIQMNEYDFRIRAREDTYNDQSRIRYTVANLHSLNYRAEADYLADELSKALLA
Sequence of S. cerevisiae replication protein A (RPA), wild type heterotrimer (Rfa1, Rfa2, Rfa3) (S. cerevisiae) (P26754 whole entry, chain 2 of 3, further chain): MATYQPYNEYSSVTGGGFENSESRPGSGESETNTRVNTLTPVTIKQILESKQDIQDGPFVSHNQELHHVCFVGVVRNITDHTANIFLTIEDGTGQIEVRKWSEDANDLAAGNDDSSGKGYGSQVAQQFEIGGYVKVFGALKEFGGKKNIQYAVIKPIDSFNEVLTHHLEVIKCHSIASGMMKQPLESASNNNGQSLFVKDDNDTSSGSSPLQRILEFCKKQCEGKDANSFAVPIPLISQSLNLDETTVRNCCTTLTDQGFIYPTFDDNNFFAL
Sequence of S. cerevisiae replication protein A (RPA), wild type heterotrimer (Rfa1, Rfa2, Rfa3) (S. cerevisiae) (P26755 whole entry, chain 3 of 3, further chain): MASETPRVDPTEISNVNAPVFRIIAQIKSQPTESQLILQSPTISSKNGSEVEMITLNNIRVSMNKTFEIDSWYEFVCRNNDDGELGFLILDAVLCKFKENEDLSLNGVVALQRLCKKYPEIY

Sequence of S. cerevisiae RPA-SSL heterotrimer (Rfa1-F11S, I14S, F15L; Rfa2; Rfa3) (S. cerevisiae) (P22336 whole entry F11S/I14S/F15L, chain 1 of 3): as the sequence (P22336 whole entry, chain 1 of 3) above, with F11S, I14S, F15L counted along it
Sequence of S. cerevisiae RPA-SSL heterotrimer (Rfa1-F11S, I14S, F15L; Rfa2; Rfa3) (S. cerevisiae) (P26754 whole entry, chain 2 of 3, further chain): as the sequence (P26754 whole entry, chain 2 of 3, further chain) above
Sequence of S. cerevisiae RPA-SSL heterotrimer (Rfa1-F11S, I14S, F15L; Rfa2; Rfa3) (S. cerevisiae) (P26755 whole entry, chain 3 of 3, further chain): as the sequence (P26755 whole entry, chain 3 of 3, further chain) above

ATPase activity (apparent kcat) of Dna2-E675A with ssDNA, stimulation by the RPA variant (48 nM) [1]: 2 fold | ATPase activity (apparent kcat) of Dna2-E675A with ssDNA, stimulation by the RPA variant (48 nM) [2]: 2 fold
Substance: S. cerevisiae Dna2-E675A (nuclease-dead) (from UniProt P38859 1-1522) (enzyme)
